According to patent publication US20090317415A1 (UNIVERSITY COLLEGE CARDIFF CONSULTANTS, published 2009):

Target: T1, HLA-A*0201 expressed on T2 cells (human)
T1 construct: also called HLA-A2
Experiment: cell-based peptide binding assay on T2 cells

binding result: binds
Binder: SLLACALEV (also called Rb peptide) [Rb485-493 (Rb7) peptide]
